Reference: US20160002357A1 (Pfizer, published 2016)

What was measured:
[1] = target: T1, cynomolgus monkey P-cadherin ECD (cynomolgus monkey); experiment: SPR
T1 construct: extracellular domain; also called cyno P-cadherin ECD; Cyno P-cadherin

[2] = target: human P-cadherin expressed on the cell surface (human, UniProt P22223 108-829); experiment: cell-based or functional assay
[3] = target: T2, human P-cadherin, cell surface expressed (human, UniProt P22223 108-829); experiment: cell-based or functional assay
T2 sequence (P22223 108-829): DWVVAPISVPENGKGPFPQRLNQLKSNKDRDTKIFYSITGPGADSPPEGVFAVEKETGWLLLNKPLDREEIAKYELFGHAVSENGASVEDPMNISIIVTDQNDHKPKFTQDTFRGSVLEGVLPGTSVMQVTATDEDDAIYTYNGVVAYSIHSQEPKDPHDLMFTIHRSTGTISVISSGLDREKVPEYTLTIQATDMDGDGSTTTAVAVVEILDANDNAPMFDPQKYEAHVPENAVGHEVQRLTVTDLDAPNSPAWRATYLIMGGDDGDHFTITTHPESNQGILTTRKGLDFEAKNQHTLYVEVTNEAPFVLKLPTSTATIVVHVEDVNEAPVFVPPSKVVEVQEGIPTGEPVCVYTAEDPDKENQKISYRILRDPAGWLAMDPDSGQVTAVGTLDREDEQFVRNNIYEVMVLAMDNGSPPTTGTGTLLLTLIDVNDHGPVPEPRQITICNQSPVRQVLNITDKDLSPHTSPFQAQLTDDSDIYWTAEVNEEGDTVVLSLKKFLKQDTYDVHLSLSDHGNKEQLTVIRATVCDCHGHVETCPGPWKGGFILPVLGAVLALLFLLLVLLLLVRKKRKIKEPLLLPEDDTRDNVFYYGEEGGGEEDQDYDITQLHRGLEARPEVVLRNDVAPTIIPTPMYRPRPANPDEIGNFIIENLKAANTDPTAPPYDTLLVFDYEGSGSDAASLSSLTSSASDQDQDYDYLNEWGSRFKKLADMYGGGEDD

[4] = target: T2, human P-cadherin, cell surface expressed; experiment: cell-based or functional assay; remark: listed apart in the source

human P-cadherin expressed on the cell surface, sequence (P22223 108-829): as above

Binder | Kd [1] | T cell Cytotoxicity [2] | T cell directed cytotoxicity EC50, CHO-CDh3 (24 h), LDH release, human PBMC E:T 30:1 [3] | T cell directed cytotoxicity EC50, H1650 (24 h), LDH release, human PBMC E:T 30:1 [3] | T cell directed cytotoxicity EC50, H1650 (40 h), LDH release, human PBMC E:T 30:1 [3] | T cell directed cytotoxicity EC50, H1650 LDH 24 hr 30:1 D41183 [4] | T cell directed cytotoxicity EC50, HCT116 Luc 48 hr 10:1 D43905 [4]
LP-DART #4 (bispecific antibody, also called P-cadherin LP-DART construct #4 (P-CAD 35, CD3-2)) chain 1: QAVVTQEPSLTVSPGGTVTLTCRSSTGAVTTSNYANWVQQKPGQAPRGLIGGTNKRAPWTPARFSGSLLGGKAALTITGAQAEDEADYYCALWYSNLWVFGGGTKLTVLGGGGSGGGGEVQLVQSGAEVKKPGASVKVSCKASGYTFTSYGISWVRQAPGQGLEWMGWISAYNGNTNYAQKLQGRVTMTTDTSTSTAYMELRSLRSDDTAVYYCATIDTASAFDIWGQGTMVTVSSGGTGGGEPKSSDKTHTCPPCPAPEAAGAPSVFLFPPKPKDTLMISRTPEVTCVVVDVSHEDPEVKFNWYVDGVEVHNAKTKPREEQYNSTYRVVSVLTVLHQDWLNGKEYKCKVSNKALPAPIEKTISKAKGQPREPQVCTLPPSREEMTKNQVSLWCLVKGFYPSDIAVEWESNGQPENNYKTTPPVLDSDGSFFLYSKLTVDKSRWQQGNVFSCSVMHEALHNHYTQKSLSLSPG chain 2: QSVLTQPPSVSAAPGQKVTISCSGSSSNIGNNYVSWYQQLPGTAPKLLIYDNNKRPSGIPDRFSGSKSGTSATLGITGLQTGDEADYYCGTWDSSLSAVVFGGGTKLTVLGGGSGGGGEVQLVESGGGLVQPGGSLRLSCAASGFTFNTYAMNWVRQAPGKGLEWVARIRSKYNNYATYYADSVKDRFTISRDDSKNSLYLQMNSLKTEDTAVYYCVRHGNFGNSYVSWFAYWGQGTLVTVSSGGTGGGEPKSSDKTHTCPPCPAPEAAGAPSVFLFPPKPKDTLMISRTPEVTCVVVDVSHEDPEVKFNWYVDGVEVHNAKTKPREEQYNSTYRVVSVLTVLHQDWLNGKEYKCKVSNKALPAPIEKTISKAKGQPREPQVYTLPPCREEMTKNQVSLSCAVKGFYPSDIAVEWESNGQPENNYKTTPPVLDSDGSFFLVSKLTVDKSRWQQGNVFSCSVMHEALHNHYTQKSLSLSPG | 128 nM | 2.45 nM | – | – | – | – | –
LP-DART #5 (bispecific antibody, also called P-cadherin LP-DART construct #5 (P-CAD 35, CD3-2)) chain 1: QAVVTQEPSLTVSPGGTVTLTCRSSTGAVTTSNYANWVQQKPGQAPRGLIGGTNKRAPWTPARFSGSLLGGKAALTITGAQAEDEADYYCALWYSNLWVFGGGTKLTVLGGGGSGGGGEVQLVQSGAEVKKPGASVKVSCKASGYTFTSYGISWVRQAPGQGLEWMGWISAYNGNTNYAQKLQGRVTMTTDTSTSTAYMELRSLRSDDTAVYYCATIDTASAFDIWGQGTMVTVSSGCPPCPAPEAAGAPSVFLFPPKPKDTLMISRTPEVTCVVVDVSHEDPEVKFNWYVDGVEVHNAKTKPREEQYNSTYRVVSVLTVLHQDWLNGKEYKCKVSNKALPAPIEKTISKAKGQPREPQVYTLPPCREEMTKNQVSLSCAVKGFYPSDIAVEWESNGQPENNYKTTPPVLDSDGSFFLVSKLTVDKSRWQQGNVFSCSVMHEALHNHYTQKSLSLSPG chain 2: QSVLTQPPSVSAAPGQKVTISCSGSSSNIGNNYVSWYQQLPGTAPKLLIYDNNKRPSGIPDRFSGSKSGTSATLGITGLQTGDEADYYCGTWDSSLSAVVFGGGTKLTVLGGGSGGGGEVQLVESGGGLVQPGGSLRLSCAASGFTFNTYAMNWVRQAPGKGLEWVARIRSKYNNYATYYADSVKDRFTISRDDSKNSLYLQMNSLKTEDTAVYYCVRHGNFGNSYVSWFAYWGQGTLVTVSSGCPPCPAPEAAGAPSVFLFPPKPKDTLMISRTPEVTCVVVDVSHEDPEVKFNWYVDGVEVHNAKTKPREEQYNSTYRVVSVLTVLHQDWLNGKEYKCKVSNKALPAPIEKTISKAKGQPREPQVCTLPPSREEMTKNQVSLWCLVKGFYPSDIAVEWESNGQPENNYKTTPPVLDSDGSFFLYSKLTVDKSRWQQGNVFSCSVMHEALHNHYTQKSLSLSPG | 62.1 nM | 0.74 nM | – | – | – | – | –
LP-DART #6 (bispecific antibody, also called P-cadherin LP-DART construct #6 (P-CAD 35, CD3-2)) chain 1: QAVVTQEPSLTVSPGGTVTLTCRSSTGAVTTSNYANWVQQKPGQAPRGLIGGTNKRAPWTPARFSGSLLGGKAALTITGAQAEDEADYYCALWYSNLWVFGGGTKLTVLGGGGSGGGGEVQLVQSGAEVKKPGASVKVSCKASGYTFTSYGISWVRQAPGQGLEWMGWISAYNGNTNYAQKLQGRVTMTTDTSTSTAYMELRSLRSDDTAVYYCATIDTASAFDIWGQGTMVTVSSGGTGGCPPCPAPEAAGAPSVFLFPPKPKDTLMISRTPEVTCVVVDVSHEDPEVKFNWYVDGVEVHNAKTKPREEQYNSTYRVVSVLTVLHQDWLNGKEYKCKVSNKALPAPIEKTISKAKGQPREPQVYTLPPCREEMTKNQVSLSCAVKGFYPSDIAVEWESNGQPENNYKTTPPVLDSDGSFFLVSKLTVDKSRWQQGNVFSCSVMHEALHNHYTQKSLSLSPG chain 2: QSVLTQPPSVSAAPGQKVTISCSGSSSNIGNNYVSWYQQLPGTAPKLLIYDNNKRPSGIPDRFSGSKSGTSATLGITGLQTGDEADYYCGTWDSSLSAVVFGGGTKLTVLGGGSGGGGEVQLVESGGGLVQPGGSLRLSCAASGFTFNTYAMNWVRQAPGKGLEWVARIRSKYNNYATYYADSVKDRFTISRDDSKNSLYLQMNSLKTEDTAVYYCVRHGNFGNSYVSWFAYWGQGTLVTVSSGGTGGCPPCPAPEAAGAPSVFLFPPKPKDTLMISRTPEVTCVVVDVSHEDPEVKFNWYVDGVEVHNAKTKPREEQYNSTYRVVSVLTVLHQDWLNGKEYKCKVSNKALPAPIEKTISKAKGQPREPQVCTLPPSREEMTKNQVSLWCLVKGFYPSDIAVEWESNGQPENNYKTTPPVLDSDGSFFLYSKLTVDKSRWQQGNVFSCSVMHEALHNHYTQKSLSLSPG | 86.6 nM | 1.29 nM | – | – | – | – | –
35 EK-DART (P-CAD 35 x CD3-2) (bispecific antibody) chain 1: QSVLTQPPSVSAAPGQKVTISCSGSSSNIGNNYVSWYQQLPGTAPKLLIYDNNKRPSGIPDRFSGSKSGTSATLGITGLQTGDEADYYCGTWDSSLSAVVFGGGTKLTVLGGGSGGGGEVQLVESGGGLVQPGGSLRLSCAASGFTFNTYAMNWVRQAPGKGLEWVARIRSKYNNYATYYADSVKDRFTISRDDSKNSLYLQMNSLKTEDTAVYYCVRHGNFGNSYVSWFAYWGQGTLVTVSSGGCGGGKVAALKEKVAALKEKVAALKEKVAALKE chain 2: QAVVTQEPSLTVSPGGTVTLTCRSSTGAVTTSNYANWVQQKPGQAPRGLIGGTNKRAPWTPARFSGSLLGGKAALTITGAQAEDEADYYCALWYSNLWVFGGGTKLTVLGGGGSGGGGEVQLVQSGAEVKKPGASVKVSCKASGYTFTSYGISWVRQAPGQGLEWMGWISAYNGNTNYAQKLQGRVTMTTDTSTSTAYMELRSLRSDDTAVYYCATIDTASAFDIWGQGTMVTVSSGGCGGGEVAALEKEVAALEKEVAALEKEVAALEK | – | – | 0.0398 nM | 0.501 nM | 0.0532 nM | 0.102 nM | 0.205 nM
20 EK-DART (P-CAD 20 x CD3-2) (bispecific antibody) chain 1: AIQMTQSPSSLSASVGDRVTITCRASQSIGKYLNWYQQIPGKAPKLLIYTASTLQTGVPSRFSGSGSGTDFTLTIVSLQPEDFATYYCQQSFNTPRTFGQGTKVEIKGGGSGGGGEVQLVESGGGLVQPGGSLRLSCAASGFTFNTYAMNWVRQAPGKGLEWVARIRSKYNNYATYYADSVKDRFTISRDDSKNSLYLQMNSLKTEDTAVYYCVRHGNFGNSYVSWFAYWGQGTLVTVSSGGCGGGKVAALKEKVAALKEKVAALKEKVAALKE chain 2: QAVVTQEPSLTVSPGGTVTLTCRSSTGAVTTSNYANWVQQKPGQAPRGLIGGTNKRAPWTPARFSGSLLGGKAALTITGAQAEDEADYYCALWYSNLWVFGGGTKLTVLGGGGSGGGGEVQLVQSGAEVKKPGASVKVSCKASGYTFTGYYMHWVRQAPGQGLEWMGRINPNSGGTNYAQKFQGRVTMTRDTSISTAYMELSRLRSDDTAVYYCAKGSGSGAFDIWGQGTMVTVSSGGCGGGEVAALEKEVAALEKEVAALEKEVAALEK | – | – | 169 nM | 36.4 nM | – | – | –
